PMC2156119 (The Journal of Cell Biology, 1999)
Like-named read-outs stand apart in the source and are kept apart here.

How the values were obtained:
[1] = molecular target: T1, tubulin heterodimer (bovine tubulin) (bovine, UniProt Q6B856 1-445); assay: pull-down
[2] = molecular target: T1, tubulin heterodimer (bovine tubulin); assay: pull-down; remark: listed apart in the source

B1: Op18-wt-F (oncoprotein 18/stathmin, wild type, COOH-terminal Flag epitope) (natural protein, human, UniProt P16949 1-149, looked up)
chain: MASSDIQVKELEKRASGQAFELILSPRSKESVPEFPLSPPKKKDLSLEEIQKKLEAAEERRKSHEAEVLKQLAEKREHEKEVLQKAIEENNNFSKMAEEKLTHKMEANKENREAQMAAKLERLREKDKHIEEVRKNKESKDPADETEAD
Q: B1 was tested. Which koff [1] did it give?
A: Its koff is 0.01 s⁻¹.

Q: What about the koff [2] of the same binder?
A: The koff was 0.0025 s⁻¹.
